Data from paper PMC5730197, “Evolution-guided adaptation of an adenylation domain substrate specificity to an unusual amino acid” (PLoS ONE, 2017).

Tests used:
Test in all cases: purified protein
Conditions in all cases: amino acid-dependent exchange of 32P from PPi into ATP
purified protein [1] = substrate: O=C(O)[C@@H]1CCCN1
purified protein [2] = substrate: CCC[C@H]1CN[C@H](C(=O)O)C1; assay type: biochemical, Streptomyces caelestis
purified protein [3] = substrate: CCCCC[C@H]1CN[C@H](C(=O)O)C1; assay type: biochemical, Streptomyces caelestis
purified protein [4] = substrate: CCC[C@H]1CN[C@H](C(=O)O)C1; assay type: biochemical, Streptomyces lincolnensis

Row | Protein | Km (purified protein [1]) | Km (purified protein [4]) | kcat (purified protein [4]) | kcat/Km (purified protein [4]) | further results
1 | CcbC (Streptomyces caelestis; V306G) (protein) MNTSTVRNSLSTLLADTAAATPGATALREPGGDTTYRDLAALAGGIQTALAEAGVRPGDRVAVLAPQTAAAVAAVHAVLSAGAAYVPLDPASPPARWAAVCGMSTPRAVVGTRDALAKLTAELPHLATVDLEAPWPEAPLAPVEREAADLGAVLPTSGSTGVPKGVAISREALLAFASWMVDTFEVGADDVIAGFSPLHFDVSVFSLFGAALTGAALAPAPPQLAGFPHELASWADDAGITVWYSVPYPLARLGTLDAVVLEQRLGRLRCVCFAGEVFPHRQLATLMSKMPWVRYTNLYGPTETNGCTFEQVLAPPDEAIAIGSPACGAECWVERDGERVDTEGAVGELIVAGPTVADGYWGNEDETARRFRFGREYRSGRAYATGDQVRILPDGRYAYLGRQDHMVKIRGQRLELEEVESVLGTADGVTGCCVVAVTPPGRPALLCAAVVGDQLDHAALRSHCRGRLPSWAIPQRFLEVPAIPLTSTGKTDRQEVRRRVMAELV | 37 ± 2 mM |  |  |  | 
2 | CcbC (Streptomyces caelestis; V306G/Y244L) (protein, full-length stand-alone A-domain, N-terminal His6 tag kept, pET28b (pccbC), E. coli BL21(DE3)) MNTSTVRNSLSTLLADTAAATPGATALREPGGDTTYRDLAALAGGIQTALAEAGVRPGDRVAVLAPQTAAAVAAVHAVLSAGAAYVPLDPASPPARWAAVCGMSTPRAVVGTRDALAKLTAELPHLATVDLEAPWPEAPLAPVEREAADLGAVLPTSGSTGVPKGVAISREALLAFASWMVDTFEVGADDVIAGFSPLHFDVSVFSLFGAALTGAALAPAPPQLAGFPHELASWADDAGITVWLSVPYPLARLGTLDAVVLEQRLGRLRCVCFAGEVFPHRQLATLMSKMPWVRYTNLYGPTETNGCTFEQVLAPPDEAIAIGSPACGAECWVERDGERVDTEGAVGELIVAGPTVADGYWGNEDETARRFRFGREYRSGRAYATGDQVRILPDGRYAYLGRQDHMVKIRGQRLELEEVESVLGTADGVTGCCVVAVTPPGRPALLCAAVVGDQLDHAALRSHCRGRLPSWAIPQRFLEVPAIPLTSTGKTDRQEVRRRVMAELV |  |  |  |  | Km (purified protein [2]): 24 ± 3 mM; kcat (purified protein [2]): 0.001 ± 5e-05 s⁻¹; kcat/Km (purified protein [2]): 0.0433 M⁻¹ s⁻¹
3 | CcbC (Streptomyces caelestis; F205A/V306G/Y244L) (protein, full-length stand-alone A-domain, N-terminal His6 tag kept, pET28b (pccbC), E. coli BL21(DE3)) MNTSTVRNSLSTLLADTAAATPGATALREPGGDTTYRDLAALAGGIQTALAEAGVRPGDRVAVLAPQTAAAVAAVHAVLSAGAAYVPLDPASPPARWAAVCGMSTPRAVVGTRDALAKLTAELPHLATVDLEAPWPEAPLAPVEREAADLGAVLPTSGSTGVPKGVAISREALLAFASWMVDTFEVGADDVIAGFSPLHFDVSVASLFGAALTGAALAPAPPQLAGFPHELASWADDAGITVWLSVPYPLARLGTLDAVVLEQRLGRLRCVCFAGEVFPHRQLATLMSKMPWVRYTNLYGPTETNGCTFEQVLAPPDEAIAIGSPACGAECWVERDGERVDTEGAVGELIVAGPTVADGYWGNEDETARRFRFGREYRSGRAYATGDQVRILPDGRYAYLGRQDHMVKIRGQRLELEEVESVLGTADGVTGCCVVAVTPPGRPALLCAAVVGDQLDHAALRSHCRGRLPSWAIPQRFLEVPAIPLTSTGKTDRQEVRRRVMAELV |  |  |  |  | Km (purified protein [2]): 6.4 ± 1 mM; kcat (purified protein [2]): 0.000333 ± 1.67e-05 s⁻¹; kcat/Km (purified protein [2]): 0.05 M⁻¹ s⁻¹; Km (purified protein [3]): 2.5 ± 1 mM; kcat (purified protein [3]): 0.000417 ± 5e-05 s⁻¹; kcat/Km (purified protein [3]): 0.167 M⁻¹ s⁻¹
4 | CcbC (Streptomyces caelestis) (protein) MNTSTVRNSLSTLLADTAAATPGATALREPGGDTTYRDLAALAGGIQTALAEAGVRPGDRVAVLAPQTAAAVAAVHAVLSAGAAYVPLDPASPPARWAAVCGMSTPRAVVGTRDALAKLTAELPHLATVDLEAPWPEAPLAPVEREAADLGAVLPTSGSTGVPKGVAISREALLAFASWMVDTFEVGADDVIAGFSPLHFDVSVFSLFGAALTGAALAPAPPQLAGFPHELASWADDAGITVWYSVPYPLARLGTLDAVVLEQRLGRLRCVCFAGEVFPHRQLATLMSKMPWVRYTNLYGPTETNVCTFEQVLAPPDEAIAIGSPACGAECWVERDGERVDTEGAVGELIVAGPTVADGYWGNEDETARRFRFGREYRSGRAYATGDQVRILPDGRYAYLGRQDHMVKIRGQRLELEEVESVLGTADGVTGCCVVAVTPPGRPALLCAAVVGDQLDHAALRSHCRGRLPSWAIPQRFLEVPAIPLTSTGKTDRQEVRRRVMAELV | 0.36 ± 0.03 mM |  |  |  | kcat (purified protein [1]): 0.917 s⁻¹; kcat/Km (purified protein [1]): 2550 M⁻¹ s⁻¹
5 | LmbC (Streptomyces lincolnensis; I300L) (protein, full-length stand-alone A-domain, C-terminal His8 tag kept, pET42b (plmbC1), E. coli BL21(DE3)) MSSSVRLSTLLASAAEARPEAPAVLGETRLPVTYGELAARAGGIQAALAGLGVRAGDRVALLSGRTDADAVAAVHAILAAGAVYVPLDAASPPARWASVSRVCAPTAVVGERALLDRFAAAVPGPRRLALPSDGDELPAGRLDPVRSDGTDVAYLLTTSGSTGVPKCVAHTGAGAVAFLEWMVGAFPVGGDDVFACHAPLHFDVSVASVLGSALGGAALAPVPRELSGFPVELATWIAERAVTVWLSVPYPLARLSGLEERAARERLATLRTVVFAGDVFPHQRLAALMRCAPGARFLNLYGPTETNGCTYEVVDAPPAGPVPIGRPVECAECWVEDDDGRPVDAVGSVGELVVAGPTVAAGYWGVEGHGAERFRTGETCPGGRAYATGDQVRVLPGGRYAFLGRMDNMIKMRGQRFELEEVENAVRLAPGVEDCCVVKVDVRDDHSRLLAVVVGPGAGDPRTLREHCLTRLPSWAVPHRFLTAAALPLGSTGKVDRRALREELVTRGE |  | 0.24 ± 0.009 mM | 0.75 ± 0.00833 s⁻¹ | 3080 M⁻¹ s⁻¹ | 
6 | LmbC (Streptomyces lincolnensis; L246Y) (protein, full-length stand-alone A-domain, C-terminal His8 tag kept, pET42b (plmbC1), E. coli BL21(DE3)) MSSSVRLSTLLASAAEARPEAPAVLGETRLPVTYGELAARAGGIQAALAGLGVRAGDRVALLSGRTDADAVAAVHAILAAGAVYVPLDAASPPARWASVSRVCAPTAVVGERALLDRFAAAVPGPRRLALPSDGDELPAGRLDPVRSDGTDVAYLLTTSGSTGVPKCVAHTGAGAVAFLEWMVGAFPVGGDDVFACHAPLHFDVSVASVLGSALGGAALAPVPRELSGFPVELATWIAERAVTVWYSVPYPLARLSGLEERAARERLATLRTVVFAGDVFPHQRLAALMRCAPGARFLNIYGPTETNGCTYEVVDAPPAGPVPIGRPVECAECWVEDDDGRPVDAVGSVGELVVAGPTVAAGYWGVEGHGAERFRTGETCPGGRAYATGDQVRVLPGGRYAFLGRMDNMIKMRGQRFELEEVENAVRLAPGVEDCCVVKVDVRDDHSRLLAVVVGPGAGDPRTLREHCLTRLPSWAVPHRFLTAAALPLGSTGKVDRRALREELVTRGE | 54 ± 2 mM | 33 ± 6 mM | 0.00617 ± 0.0005 s⁻¹ | 0.183 M⁻¹ s⁻¹ | kcat (purified protein [1]): 0.217 s⁻¹; kcat/Km (purified protein [1]): 4 M⁻¹ s⁻¹
7 | LmbC (Streptomyces lincolnensis; G308V) (protein, full-length stand-alone A-domain, C-terminal His8 tag kept, pET42b (plmbC1), E. coli BL21(DE3)) MSSSVRLSTLLASAAEARPEAPAVLGETRLPVTYGELAARAGGIQAALAGLGVRAGDRVALLSGRTDADAVAAVHAILAAGAVYVPLDAASPPARWASVSRVCAPTAVVGERALLDRFAAAVPGPRRLALPSDGDELPAGRLDPVRSDGTDVAYLLTTSGSTGVPKCVAHTGAGAVAFLEWMVGAFPVGGDDVFACHAPLHFDVSVASVLGSALGGAALAPVPRELSGFPVELATWIAERAVTVWLSVPYPLARLSGLEERAARERLATLRTVVFAGDVFPHQRLAALMRCAPGARFLNIYGPTETNVCTYEVVDAPPAGPVPIGRPVECAECWVEDDDGRPVDAVGSVGELVVAGPTVAAGYWGVEGHGAERFRTGETCPGGRAYATGDQVRVLPGGRYAFLGRMDNMIKMRGQRFELEEVENAVRLAPGVEDCCVVKVDVRDDHSRLLAVVVGPGAGDPRTLREHCLTRLPSWAVPHRFLTAAALPLGSTGKVDRRALREELVTRGE |  | 5.8 ± 0.6 mM | 0.0065 ± 0.000333 s⁻¹ | 1.17 M⁻¹ s⁻¹ | 
8 | LmbC (Streptomyces lincolnensis; V274C) (protein, full-length stand-alone A-domain, C-terminal His8 tag kept, pET42b (plmbC1), E. coli BL21(DE3)) MSSSVRLSTLLASAAEARPEAPAVLGETRLPVTYGELAARAGGIQAALAGLGVRAGDRVALLSGRTDADAVAAVHAILAAGAVYVPLDAASPPARWASVSRVCAPTAVVGERALLDRFAAAVPGPRRLALPSDGDELPAGRLDPVRSDGTDVAYLLTTSGSTGVPKCVAHTGAGAVAFLEWMVGAFPVGGDDVFACHAPLHFDVSVASVLGSALGGAALAPVPRELSGFPVELATWIAERAVTVWLSVPYPLARLSGLEERAARERLATLRTVCFAGDVFPHQRLAALMRCAPGARFLNIYGPTETNGCTYEVVDAPPAGPVPIGRPVECAECWVEDDDGRPVDAVGSVGELVVAGPTVAAGYWGVEGHGAERFRTGETCPGGRAYATGDQVRVLPGGRYAFLGRMDNMIKMRGQRFELEEVENAVRLAPGVEDCCVVKVDVRDDHSRLLAVVVGPGAGDPRTLREHCLTRLPSWAVPHRFLTAAALPLGSTGKVDRRALREELVTRGE |  | 0.39 ± 0.04 mM | 0.65 ± 0.0167 s⁻¹ | 1670 M⁻¹ s⁻¹ | 
9 | LmbC (Streptomyces lincolnensis; A207F) (protein, full-length stand-alone A-domain, C-terminal His8 tag kept, pET42b (plmbC1), E. coli BL21(DE3)) MSSSVRLSTLLASAAEARPEAPAVLGETRLPVTYGELAARAGGIQAALAGLGVRAGDRVALLSGRTDADAVAAVHAILAAGAVYVPLDAASPPARWASVSRVCAPTAVVGERALLDRFAAAVPGPRRLALPSDGDELPAGRLDPVRSDGTDVAYLLTTSGSTGVPKCVAHTGAGAVAFLEWMVGAFPVGGDDVFACHAPLHFDVSVFSVLGSALGGAALAPVPRELSGFPVELATWIAERAVTVWLSVPYPLARLSGLEERAARERLATLRTVVFAGDVFPHQRLAALMRCAPGARFLNIYGPTETNGCTYEVVDAPPAGPVPIGRPVECAECWVEDDDGRPVDAVGSVGELVVAGPTVAAGYWGVEGHGAERFRTGETCPGGRAYATGDQVRVLPGGRYAFLGRMDNMIKMRGQRFELEEVENAVRLAPGVEDCCVVKVDVRDDHSRLLAVVVGPGAGDPRTLREHCLTRLPSWAVPHRFLTAAALPLGSTGKVDRRALREELVTRGE |  | 8.6 ± 1 mM | 0.0733 ± 0.005 s⁻¹ | 8.5 M⁻¹ s⁻¹ | 
